# Laboratory results: the supplement of paper PMC9112550, “Optimization of the antimicrobial peptide Bac7 by deep mutational scanning” (BMC Biology, 2022)
# Test system: Escherichia coli TOP10
# Experiment: shrunken log2 fold change of peptide-encoding DNA abundance (4.5 h post-induction vs induction); higher = less antimicrobial activity (less host growth inhibition)
# Details: time post-induction: 4.5 h; library: site-saturation at positions 5, 18, 19, 20
# 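Also: peptides expressed intracellularly from a pBAD plasmid library in pooled LB shake-flask culture, induced with 0.3% L-arabinose, DNA abundance read by NGS, three biological replicates, DESeq2 with apeglm shrinkage.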
row,Sequence,shrunken log2 fold change
1,RRIRGRPPRLPRPRPRPHNWPRP,0.18
2,RRIRARPPRLPRPRPRPCQGPRP,-0.11
3,RRIRLRPPRLPRPRPRPPWPPRP,0.578
4,RRIRVRPPRLPRPRPRPFDHPRP,-0.557
5,RRIRDRPPRLPRPRPRPHLQPRP,0.157
6,RRIRIRPPRLPRPRPRPVNTPRP,-1.06
7,RRIRWRPPRLPRPRPRPLGIPRP,-0.242
8,RRIRPRPPRLPRPRPRPKKAPRP,0.129
9,RRIRSRPPRLPRPRPRPTGQPRP,0.31
10,RRIRSRPPRLPRPRPRPFPRPRP,0.356
11,RRIRDRPPRLPRPRPRPEMQPRP,-0.0247
12,RRIRHRPPRLPRPRPRPCWPPRP,-0.106
13,RRIRNRPPRLPRPRPRPGVRPRP,0.212
14,RRIRCRPPRLPRPRPRPCLTPRP,-0.17
15,RRIRERPPRLPRPRPRPDFTPRP,-0.233
16,RRIRFRPPRLPRPRPRPRPNPRP,0.4
17,RRIRLRPPRLPRPRPRPCCMPRP,-0.408
18,RRIRRRPPRLPRPRPRPHVLPRP,0.0842
19,RRIRMRPPRLPRPRPRPCMFPRP,-0.038
20,RRIRLRPPRLPRPRPRPQVRPRP,0.0635
21,RRIRERPPRLPRPRPRPHQYPRP,-0.00989
22,RRIRNRPPRLPRPRPRPCNVPRP,-0.00963
23,RRIRRRPPRLPRPRPRPTFGPRP,0.337
24,RRIRHRPPRLPRPRPRPFCNPRP,0.00929
25,RRIRMRPPRLPRPRPRPANEPRP,0.182

row,Sequence,shrunken log2 fold change
1,RRIRTRPPRLPRPRPRPAPAPRP,0.463
2,RRIRERPPRLPRPRPRPCTCPRP,-0.00884
3,RRIRGRPPRLPRPRPRPWHHPRP,-0.26
4,RRIRWRPPRLPRPRPRPTWIPRP,0.0497
5,RRIRTRPPRLPRPRPRPRIMPRP,-0.254
6,RRIRLRPPRLPRPRPRPPNGPRP,-0.0536
7,RRIRTRPPRLPRPRPRPNIHPRP,-0.586
8,RRIRLRPPRLPRPRPRPWISPRP,0.0832
9,RRIRIRPPRLPRPRPRPNMVPRP,-0.383
10,RRIRWRPPRLPRPRPRPFKEPRP,-0.139
11,RRIRMRPPRLPRPRPRPIWPPRP,0.769
12,RRIRARPPRLPRPRPRPWYPPRP,-0.11
13,RRIRQRPPRLPRPRPRPFHDPRP,-0.336
14,RRIRDRPPRLPRPRPRPPLGPRP,0.547
15,RRIRGRPPRLPRPRPRPNVLPRP,-0.0548
16,RRIRDRPPRLPRPRPRPGVTPRP,0.596
17,RRIRARPPRLPRPRPRPYCEPRP,0.0687
18,RRIRHRPPRLPRPRPRPAECPRP,-0.696
19,RRIRQRPPRLPRPRPRPSWNPRP,-0.238
20,RRIRPRPPRLPRPRPRPKFHPRP,-0.143
21,RRIRRRPPRLPRPRPRPAATPRP,0.335
22,RRIRKRPPRLPRPRPRPHQMPRP,0.0681
23,RRIRQRPPRLPRPRPRPHWVPRP,0.0288
24,RRIRMRPPRLPRPRPRPDPFPRP,0.0255
25,RRIRLRPPRLPRPRPRPGFSPRP,-0.161

row,Sequence,shrunken log2 fold change
1,RRIRNRPPRLPRPRPRPICTPRP,-0.122
2,RRIRSRPPRLPRPRPRPNCWPRP,0.292
3,RRIRRRPPRLPRPRPRPMICPRP,-0.0373
4,RRIRPRPPRLPRPRPRPCPPPRP,-0.0276
5,RRIRDRPPRLPRPRPRPREPPRP,0.112
6,RRIRNRPPRLPRPRPRPQDTPRP,-0.0984
7,RRIRHRPPRLPRPRPRPQSAPRP,-0.116
8,RRIRWRPPRLPRPRPRPEYDPRP,0.695
9,RRIRWRPPRLPRPRPRPYQGPRP,-0.0161
10,RRIRCRPPRLPRPRPRPLMMPRP,0.239
11,RRIRFRPPRLPRPRPRPMQRPRP,0.226
12,RRIRERPPRLPRPRPRPDRPPRP,-0.165
13,RRIRRRPPRLPRPRPRPDWHPRP,-0.0494
14,RRIRSRPPRLPRPRPRPLLEPRP,0.243
15,RRIRVRPPRLPRPRPRPVVPPRP,0.132
16,RRIRNRPPRLPRPRPRPSSTPRP,-0.201
17,RRIRARPPRLPRPRPRPKFPPRP,2.15
18,RRIRQRPPRLPRPRPRPVPAPRP,0.475
19,RRIRFRPPRLPRPRPRPNFWPRP,0.15
20,RRIRLRPPRLPRPRPRPNEWPRP,-0.227
21,RRIRRRPPRLPRPRPRPRMMPRP,0.351
22,RRIRHRPPRLPRPRPRPDIGPRP,0.0697
23,RRIRKRPPRLPRPRPRPDTMPRP,0.224
24,RRIRWRPPRLPRPRPRPPKRPRP,0.388
25,RRIRLRPPRLPRPRPRPQWTPRP,0.107
